This note sets out measurements from paper PMC3823233 (Nature structural & molecular biology, 2013).

Test [1] addresses BG505 SOSIP.664 gp140 trimer (HIV-1 clade A, isolate BG505 …, stabilised, glycosylated).
Another test has as its target gp120 from strain JRCSF (HIV-1 (isolate JRCSF), UniProt P20871). Kind of test: ELISA.
A further test deals with gp120 from strain JRFL (HIV-1 clade B, isolate JR-FL, UniProt Q75760, strain). Kind of test: ELISA.

B1: PGT 135 Fab (Fab, V domains shown)
VH: QLQMQESGPGLVKPSETLSLSCTVSGDSIRGGEWGDKDYHWGWVRHSAGKGLEWIGSIHWRGTTHYKESLRRRVSMSIDTSRNWFSLRLASVTAADTAVYFCARHRHHDVFMLVPIAGWFDVWGPGVQVTVSS
VL: EIVMTQSPDTLSVSPGETVTLSCRASQNINKNLAWYQYKPGQSPRLVIFETYSKIAAFPARFVASGSGTEFTLTINNMQSEDVAVYYCQQYEEWPRTFGQGTKVDIK
Consider B1, for which the “stoichiometry N” value in test [1] worked out at 3 Fabs per trimer.

B2: PGT 135 IgG (antibody, V domains shown)
VH: B1 VH
VL: B1 VL
Turning to B2, the binding result in the test with gp120 from strain JRCSF and with gp120 from strain JRFL was “binds” throughout.
